Assay results from US20260015420A1 (CENTESSA PHARMACEUTICALS UK, published 2026).
Substitutions are numbered along the chain they refer to. In names and notes the source's numbering stands. Each block holds one molecule with its values, some of them ahead of it.

Key:
Insulin = experiment: ELISA on coated insulin, OD450
human CD47-Fc [1] = target: T1, human CD47-Fc (human, UniProt Q08722 19-139); experiment: competition ELISA: human CD47-Fc binding to plate-bound human SIRPa-Fc, % binding
T1 construct: also called hCD47; human CD47-Fc protein; not shown: Fc part

[2] = target: T2, human CD47 on cells (human CD47-transfected CHO-K1 cells; HL60; Jurkat) (human, UniProt Q08722 19-323); experiment: flow cytometry, human CD47-transfected CHO-K1 cells, 100-0.024 µg/ml
T2 construct: CHO-K1 cells stably transfected with human CD47 full-length cDNA; also endogenous CD47 of the human AML line HL60 and of Jurkat cells; also called human CD47+ cells; human CD47+CHO-K1

human CD47-Fc [3] = target: T1, human CD47-Fc; experiment: HTRF competition with labelled h5F9G4 IgG1 (m11) for human CD47-Fc, normalised 665/615 ratio
human CD47-Fc [4] = target: T1, human CD47-Fc; experiment: direct ELISA, coated human CD47-Fc, OD450
human CD47-Fc [5] = target: T1, human CD47-Fc; experiment: competition ELISA: human CD47-Fc binding to plate-bound human SIRPa-Fc, OD450
human CD47-Fc [6] = target: T1, human CD47-Fc; experiment: direct ELISA, coated human CD47-Fc, OD450 [D00009 FIG. 6C; D00010 FIG. 6E; D00011 FIG. 6G]
[7] = target: T3, cynomolgus monkey CD47 on cyno CD47-transfected CHO-K1 cells (cynomolgus monkey, UniProt Q08722 19-323 (human entry)); experiment: flow cytometry, cyno CD47-transfected CHO-K1 cells, 100-0.024 µg/ml
T3 construct: CHO-K1 cells stably transfected with cyno CD47 full-length cDNA; also called cyno CD47+ cells; cyno CD47+CHO-K1
T3 chain: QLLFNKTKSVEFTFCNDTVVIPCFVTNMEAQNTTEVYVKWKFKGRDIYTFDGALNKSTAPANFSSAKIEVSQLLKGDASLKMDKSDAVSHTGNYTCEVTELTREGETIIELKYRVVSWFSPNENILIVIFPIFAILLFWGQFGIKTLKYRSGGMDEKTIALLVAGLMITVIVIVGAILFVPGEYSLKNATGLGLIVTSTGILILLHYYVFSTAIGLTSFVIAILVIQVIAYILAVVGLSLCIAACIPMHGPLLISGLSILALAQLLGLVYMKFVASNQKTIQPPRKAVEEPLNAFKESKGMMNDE

[8] = target: T4, cynomolgus monkey CD47-Fc (cynomolgus monkey, UniProt Q08722 19-139 (human entry), limits assumed); experiment: HTRF competition with labelled h5F9G4 IgG1 (m11) for cyno CD47-Fc, normalised 665/615 ratio
T4 construct: also called cCD47; cyno CD47-Fc; not shown: Fc part
T4 chain: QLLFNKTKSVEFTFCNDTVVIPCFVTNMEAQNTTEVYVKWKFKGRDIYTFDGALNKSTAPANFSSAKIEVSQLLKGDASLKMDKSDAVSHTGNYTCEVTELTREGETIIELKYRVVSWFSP

human CD47-Fc [9] = target: T1, human CD47-Fc; experiment: HTRF epitope competition; competitor Tb-labelled h5F9G4 IgG1 on biotinylated human CD47-Fc
[10] = target: T4, cynomolgus monkey CD47-Fc; experiment: competition ELISA: cyno CD47-Fc binding to plate-bound human SIRPa-Fc, % binding
[11] = target: T4, cynomolgus monkey CD47-Fc; experiment: competition ELISA: cyno CD47-Fc binding to plate-bound human SIRPa-Fc, OD450
[12] = target: T4, cynomolgus monkey CD47-Fc; experiment: direct ELISA, coated cyno CD47-Fc, OD450 [D00009 FIG. 6D; D00010 FIG. 6F; D00011 FIG. 6H]
[13] = target: T4, cynomolgus monkey CD47-Fc; experiment: HTRF epitope competition; competitor Tb-labelled h5F9G4 IgG1 on biotinylated cyno CD47-Fc
human CD47-Fc [14] = target: T1, human CD47-Fc; experiment: HTRF competition with labelled h5F9G4 IgG1 (m11) for human CD47-Fc, 665/615 ratio
human CD47-Fc [15] = target: T1, human CD47-Fc; experiment: as above; remark: listed apart in the source
[16] = target: T4, cynomolgus monkey CD47-Fc; experiment: direct ELISA, coated cyno CD47-Fc, OD450
[17] = target: T5, Cyno CD47 (Biacore steady state analysis) (cynomolgus monkey, UniProt Q08722 19-139 (human entry), limits assumed); experiment: Biacore SPR, steady state affinity, monomeric Fab
T5 construct: The construct on the Biacore chip is not described (possibly CD47-Fc)
T5 chain: T4 chain

human CD47-Fc [18] = target: T1, human CD47-Fc; experiment: direct ELISA, coated human CD47-Fc, OD450; remark: listed apart in the source
[19] = target: T3, cynomolgus monkey CD47 on cyno …; experiment: flow cytometry, CHO-K1 cells transfected with cyno CD47, MFI

Insulin, sequence (P01308 25-54, chain 1 of 2): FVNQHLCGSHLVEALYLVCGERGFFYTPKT
Insulin, sequence (P01308 90-110, chain 2 of 2): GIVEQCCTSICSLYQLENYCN

EC50 (read off the curve) (Insulin): 0.02 µg/mL
Molecule: Bococizumab human IgG1 analogue (antibody)

IC50 (read off the curve) (human CD47-Fc [1]): ~0.3 µg/mL
maximum MFI over background on untransfected CHO-K1 (fold) [2]: > 50 fold
IC50 (read off the curve) (human CD47-Fc [3]): ~0.3 µg/mL
EC50 (read off the curve) (human CD47-Fc [4]): ~0.04 µg/mL
IC50 (read off the curve) (human CD47-Fc [5]): ~1 nM
EC50 (read off the curve) (human CD47-Fc [6]): ~0.07 µg/mL
maximum MFI over background on untransfected CHO-K1 (fold) [7]: > 50 fold
IC50 (read off the curve) [8]: ~0.1 µg/mL
IC50 (human CD47-Fc [9]): 0.601 µg/mL
IC50 (read off the curve) [10]: ~0.2 µg/mL
IC50 (read off the curve) [11]: ~3 nM
EC50 (read off the curve) [12]: ~0.06 µg/mL
IC50 [13]: 0.809 µg/mL
IC50 (read off the curve) (human CD47-Fc [14]): ~0.05 µg/mL
IC50 (read off the curve) (human CD47-Fc [15]): ~0.05 µg/mL
B1: chimeric anti-CD47 m5F9G4, human IgG1null (antibody, V domains shown)
VH: QVQLQQPGAELVKPGASVMMSCKASGYTFTNYNMHWVKQTPGQGLEWIGTIYPGNDDTSYNQKFKDKATLTADKSSSAAYMQLSSLTSEDSAVYYCARGGYRAMDYWGQGTSVTVSS
VL: DVLMTQTPLSLPVSLGDQASISCRSSQSIVYSNGNTYLGWYLQKPGQSPKLLIYKVSNRFSGVPDRFSGSGSGTDFTLKISRVEAEDLGVYHCFQGSHVPYTFGGGTKVEIK
notes: Murine v-domains on human IgG1null (IgG1 with L234A/L235A/G237A), kappa; also called m5F9G4 IgG1; m59G4

EC50 (read off the curve) (human CD47-Fc [4]): ~0.06 µg/mL
binding result [16]: binds
IC50 (read off the curve) (human CD47-Fc [15]): ~4 µg/mL
B2: F-E5, human IgG1null (antibody, V domains shown)
VH: EVQLVQSGAEVKKPGESLKISCKGSGYSFTNYNIHWVRQMPGKGLEWMGTIYPGNSDTSYNPKFQGQVTISADKSISTAYLQWSSLKASDTAMYYCARGGKRAMDYWGQGTLVTVSS
VL: DIVMTQSPLSLPVTPGEPASISCRSSQSLLHSNGNTYLGWYLQKPGQSPQLLIYKGSNRFSGVPDRFSGSGSGTDFTLKISRVEAEDVGVYYCMQASQVPYTFGQGTKLEIK
notes: framework limits derived from the Unified CDR definitions; IgG1null; also called Clone F-E5

Kd [17]: 27.8 nM
B3: FAB VH1.8/1.6DI (Fab, V domains shown)
VH: QVQLVQSGAEVKKPGASVKVSCKASGYTFTNYAMHWVRQAPGQRLEWMGTIYPGNDDTKYNQKFQGRVTITADTSASTAYMELSSLRSEDTAVYYCARGGFRAMDYWGQGTLVTVSS
VL: B2 VL with G34A, L52A, V88A, M94F, Q98H
notes: Fab expressed as soluble monomer; VL carries the two deimmunising alanine substitutions; also called VH1.8/VL1.6-DI Fab

IC50 (read off the curve) (human CD47-Fc [1]): ~0.4 µg/mL
IC50 (human CD47-Fc [9]): 0.911 µg/mL
EC50 (read off the curve) (human CD47-Fc [18]): ~0.06 µg/mL
binding result [19]: binds
B4: VH1.8/VL1.5, human IgG1null (antibody, V domains shown)
VH: B3 VH
VL: B2 VL with G34A, N35Y, T36N, M94F, Q98H
notes: IgG1null; also called Clone VH1.8/VL1.5

IC50 (read off the curve) (human CD47-Fc [1]): ~2 µg/mL
IC50 (human CD47-Fc [9]): 2.94 µg/mL
EC50 (read off the curve) (human CD47-Fc [18]): ~0.06 µg/mL
binding result [19]: binds
B5: VH1.8/VL1.4, human IgG1null (antibody, V domains shown)
VH: B3 VH
VL: B2 VL with G34A, N35Y, T36N, M94F
notes: IgG1null; also called Clone VH1.8/VL1.4

IC50 (read off the curve) (human CD47-Fc [1]): ~0.3 µg/mL
IC50 (human CD47-Fc [9]): 0.56 µg/mL
EC50 (read off the curve) (human CD47-Fc [18]): ~0.06 µg/mL
binding result [19]: binds
B6: VH1.8/VL1.6, human IgG1null (antibody, V domains shown)
VH: B3 VH
VL: B2 VL with G34A, M94F, Q98H
notes: IgG1null; also called Clone VH1.8/VL1.6

IC50 (read off the curve) (human CD47-Fc [1]): ~0.4 µg/mL
IC50 (human CD47-Fc [9]): 0.928 µg/mL
EC50 (read off the curve) (human CD47-Fc [18]): ~0.06 µg/mL
binding result [19]: binds
B7: VH1.8/VL1.3, human IgG1null (antibody, V domains shown)
VH: B3 VH
VL: B2 VL with G34A, M94F
notes: IgG1null; also called Clone VH1.8/VL1.3

IC50 (read off the curve) (human CD47-Fc [5]): ~4 nM
IC50 (read off the curve) [11]: ~5 nM
IC50 (read off the curve) (human CD47-Fc [14]): ~0.3 µg/mL
B8: IGHV5-51 graft IgG (IGKV2-28/IGHV5-51 graft), human IgG1null (antibody, V domains shown)
VH: B2 VH with I34M, S56D, P62Q, K101Y
VL: B2 VL with L29I, L30V, H31Y, G56V, M94F, A96G, Q98H
notes: IgG1null; also called IGHV5-51 grafted IgG; IGHV5-51-grafted IgG

Kd [17]: 25.9 nM
B9: FAB VH1.8/1.6 (Fab, V domains shown)
VH: B3 VH
VL: B2 VL with G34A, M94F, Q98H
notes: Fab expressed as soluble monomer; also called VH1.8/VL1.6 Fab

EC50 (read off the curve) (human CD47-Fc [4]): ~0.09 µg/mL
binding result [16]: binds
IC50 (read off the curve) (human CD47-Fc [14]): ~4 µg/mL
B10: D6 IgG, human IgG1null (antibody, V domains shown)
VH: B2 VH with K63S, K101V
VL: B2 VL
notes: The text prints both D6 and D-A6 for what reads as the same clone; IgG1null; also called D-A6 IgG; Clone D6

Kd [17]: 17.9 nM
B11: FAB VH1.8/1.1 (Fab, V domains shown)
VH: B3 VH
VL: B2 VL with M94F, Q98H
notes: Fab expressed as soluble monomer; also called VH1.8/VL1.1 Fab

binding result [16]: binds
IC50 (read off the curve) (human CD47-Fc [15]): ~1 µg/mL
B12: E-A1, human IgG1null (antibody, V domains shown)
VH: B2 VH with N55D, S59R, K101Y, M104E
VL: B2 VL with A96G, Q98H
notes: IgG1null; also called Clone E-A1
